In patent US7528244:

Biological target: T1, caspase-3, P42574
T1 chain: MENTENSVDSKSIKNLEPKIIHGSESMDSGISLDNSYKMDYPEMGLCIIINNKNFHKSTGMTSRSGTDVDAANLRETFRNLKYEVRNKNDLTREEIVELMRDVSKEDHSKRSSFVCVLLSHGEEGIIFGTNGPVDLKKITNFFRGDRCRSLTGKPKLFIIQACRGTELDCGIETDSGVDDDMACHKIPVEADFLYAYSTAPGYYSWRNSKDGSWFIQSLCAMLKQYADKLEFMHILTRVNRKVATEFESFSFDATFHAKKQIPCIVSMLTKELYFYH

B1: caspase-8 (217-479) (protein)
chain: SESQTLDKVYQMKSKPRGYCLIINNHNFAKAREKVPKLHSIRDRNGTHLDAGALTTTFEELHFEIKPHDDCTVEQIYEILKIYQLMDHSNMDCFICCILSHGDKGIIYGTDGQEAPIYELTSQFTGLKCPSLAGKPKVFFIQACQGDNYQKGIPVETDSEEQPYLEMDLSSPQTRYIPDEADFLLGMATVNNCVSYRNPAEGTWYIQSLCQSLRERCPRGDDILTILTEVNYEVSNKDDKKNMGKQMPQPTFTLRKKLVFPSD
With B1 the “processing of 35S-labeled caspase-3 precursor by in vitro translated protein” value was “In vitro translated Casper (192-480) could not process caspase-3, whereas in vitro translated caspase-8 (217-479) could”.
